Experimental data reported in patent US20240166765A1, “INFLAMMATORY DISEASE TREATMENT USING ANTI-TISSUE FACTOR ANTIBODIES” (Iconic Therapeutics LLC, priority 2020, published 2024).

Legend:
Assay in all cases: Epitope binning, chimeric TF construct mapping (live cell staining assay)
Format in all cases: binding
[1] = biological target: T1, chimeric human-rat TF constructs expressed on HEK293 cells (Homo sapiens, UniProt P13726, E160K/E162S/F148Y/L140I/N156K/R163F/S147K/T144V/V151G/V155L); conditions: construct h108-132_r (10); human segment replaced by rat segment
T1 construct: expressed in transfected cells; host or cells: HEK293
Procedure: (§1) To establish binding of the anti-human TF antibodies to the various TF constructs, HEK293 cells were transfected with a DNA plasmid that co-expresses the TF construct and a green fluorescent protein marker. For a subset of the antibodies, an antibody titration (a 12-point 1:3 dilution series starting at 250 nM) was evaluated on select TF constructs (See international PCT application PCT/US2019/012427 and U.S. utility application Ser. No. 16/959,652, incorporated herein by reference in their entirety). […] Two days after transfection, cells were collected from the tissue culture plate, stained with 15 μg/ml of the indicated anti-TF antibody, washed, stained with anti-human IgG-Fc Alexa Fluor 647 polyclonal antibody, washed, and stained with the viability dye 4′,6-Diamidino-2-Phenylindole, Dihydrochloride. Upon acquisition of 80,000 live events on a flow cytometer, live cells marked with the fluorescent marker were analyzed for the degree of staining by the anti-TF antibody. […] As used herein, the term “live cell staining assay” refers to the antibody binding assay used in this example.
(§2) When “Percentage antibody binding to TF construct relative to hTF” in Tables 51 and 52 was less than 50%, the antibody was considered a non-binder (0) in Tables 53 and 54.

[2] = biological target: T2, chimeric human-rat TF constructs expressed on HEK293 cells (Homo sapiens, UniProt P13726, D76N/F108L/F82T/G75R/K100N/K73R/L104E/Q101W/S79Y/T72D/Y83G); conditions: construct h39-77_r (11); human segment replaced by rat segment
T2 construct: expressed in transfected cells; host or cells: HEK293
Procedure: as §1, §2

[3] = biological target: T3, chimeric human-rat TF constructs expressed on HEK293 cells (Homo sapiens, UniProt P13726, I184G/T186I/W190R/Y188T); conditions: construct h152-158_r (4); human segment replaced by rat segment
T3 construct: expressed in transfected cells; host or cells: HEK293
Procedure: as §1, §2

[4] = biological target: T4, chimeric human-rat TF constructs expressed on HEK293 cells (Homo sapiens, UniProt P13726, K181N)
T4 construct: expressed in transfected cells; host or cells: HEK293
Procedure: as §1, §2

[5] = biological target: T5, chimeric human-rat TF constructs expressed on HEK293 cells (Homo sapiens, UniProt P13726, D177Q/E160K/E162S/F148Y/I184G/K181N/L140I/N156K/N170G/R163F/R168K/S147K/S174T/T144V/T186I/V151G/V155L/W190R/Y188T); conditions: construct h108-158_r (19); human segment replaced by rat segment
T5 construct: expressed in transfected cells; host or cells: HEK293
Procedure: as §1, §2

[6] = biological target: T6, chimeric human-rat TF constructs expressed on HEK293 cells (Homo sapiens, UniProt P13726, A112W/A121H/D76N/DEL115-116/DUP123-123/E127T/E131K/E137D/E58Q/F108L/F82T/G113R/G75R/INS118HGKETLF/K100N/K47I/K73R/L104E/L125P/L136R/N139K/N50D/P130R/Q101W/Q64Y/S120T/S129A/S79Y/T133L/T72D/V62T/V65T/Y110V/Y126F/Y83G); conditions: construct h1-107_r (52); human segment replaced by rat segment
T6 construct: expressed in transfected cells; host or cells: HEK293
Procedure: as §1, §2

[7] = biological target: T7, chimeric human-rat TF constructs expressed on HEK293 cells (Homo sapiens, UniProt P13726, A112W/A121H/DEL115-116/DUP123-123/G113R/INS118HGKETLF/L125P/S120T/Y110V); conditions: construct h78-93_r (18); human segment replaced by rat segment
T7 construct: expressed in transfected cells; host or cells: HEK293
Procedure: as §1, §2

[8] = biological target: T8, chimeric human-rat TF constructs expressed on HEK293 cells (Homo sapiens, UniProt P13726, D177Q/N170G/R168K/S174T); conditions: construct h133-145_r (4); human segment replaced by rat segment
T8 construct: expressed in transfected cells; host or cells: HEK293
Procedure: as §1, §2

[9] = biological target: T9, chimeric human-rat TF constructs expressed on HEK293 cells (Homo sapiens, UniProt P13726, A200N/K197R/K201T/N203H/S192D/S195T); conditions: construct h159-174_r (6); human segment replaced by rat segment
T9 construct: expressed in transfected cells; host or cells: HEK293
Procedure: as §1, §2

[10] = biological target: T10, chimeric human-rat TF constructs expressed on HEK293 cells (Homo sapiens, UniProt P13726, A200N/K201T/N203H); conditions: construct h167-174_r (3); human segment replaced by rat segment
T10 construct: expressed in transfected cells; host or cells: HEK293
Procedure: as §1, §2

[11] = system: chimeric human-rat TF constructs expressed on HEK293 cells
Procedure: as §1, §2

[12] = biological target: T11, chimeric human-rat TF constructs expressed on HEK293 cells (Homo sapiens, UniProt P13726, I184G/K181N/T186I/W190R/Y188T); conditions: construct h146-158_r (5); human segment replaced by rat segment
T11 construct: expressed in transfected cells; host or cells: HEK293
Procedure: as §1, §2

[13] = biological target: T12, chimeric human-rat TF constructs expressed on HEK293 cells (Homo sapiens, UniProt P13726, E58Q/K47I/N50D/Q64Y/V62T/V65T); conditions: construct h1-38_r (14); human segment replaced by rat segment
T12 construct: expressed in transfected cells; host or cells: HEK293
Procedure: as §1, §2

[14] = biological target: T13, chimeric human-rat TF constructs expressed on HEK293 cells (Homo sapiens, UniProt P13726, A112W/A121H/DEL115-116/DUP123-123/E127T/E131K/E137D/G113R/INS118HGKETLF/L125P/L136R/N139K/P130R/S120T/S129A/T133L/Y110V/Y126F); conditions: construct h78-107_r.v2 (27); human segment replaced by rat segment
T13 construct: expressed in transfected cells; host or cells: HEK293
Procedure: as §1, §2

Substance: TF-011
- Antibody binding to TF construct [1]: 1 (between 50% and 150%, the antibody was considered a binder (1))
- Antibody binding to TF construct [2]: 0 (less than 50%, the antibody was considered a non-binder (0))
- Antibody binding to TF construct [3]: 1 (between 50% and 150%, the antibody was considered a binder (1))
- Antibody binding to TF construct ([4]; construct h146-151_r (1), human segment replaced by rat segment): 1 (between 50% and 150%, the antibody was considered a binder (1))
- Antibody binding to TF construct ([4]; construct hTF_K149N): 1 (between 50% and 150%, the antibody was considered a binder (1))
- Antibody binding to TF construct [5]: 1 (between 50% and 150%, the antibody was considered a binder (1))
- Antibody binding to TF construct [6]: 0 (less than 50%, the antibody was considered a non-binder (0))
- Antibody binding to TF construct [7]: 1 (between 50% and 150%, the antibody was considered a binder (1))
- Antibody binding to TF construct [8]: 1 (between 50% and 150%, the antibody was considered a binder (1))
- Antibody binding to TF construct [9]: 1 (between 50% and 150%, the antibody was considered a binder (1))
- Antibody binding to TF construct [10]: 1 (between 50% and 150%, the antibody was considered a binder (1))
- Antibody binding to TF construct ([11]; Table 53, construct rTF): 0 (less than 50%, the antibody was considered a non-binder (0))
- Antibody binding to TF construct ([11]; Table 54, construct rTF): 0 (less than 50%, the antibody was considered a non-binder (0))
- Constructs not bound by antibody ([11]; chimeric human-rat TF constructs): rTF, h1-107_r, h1-77_r, h39-77_r, h78-107_r, h78-107_r.v2, h94-107_r
- Antibody binding to TF construct ([11]; construct h78-107_r (21), human segment replaced by rat segment): 0 (less than 50%, the antibody was considered a non-binder (0))
- Antibody binding to TF construct ([11]; construct h108-219_r (46), human segment replaced by rat segment): 1 (between 50% and 150%, the antibody was considered a binder (1))
- Antibody binding to TF construct ([11]; construct h159-219_r (27), human segment replaced by rat segment): 1 (between 50% and 150%, the antibody was considered a binder (1))
- Antibody binding to TF construct ([11]; construct r141-194_h (rat amino acid segment replaced by human segment, 20 amino acid changes)): 0 (less than 50%, the antibody was considered a non-binder (0))
- Antibody binding to TF construct [12]: 1 (between 50% and 150%, the antibody was considered a binder (1))
- Antibody binding to TF construct [13]: 1 (between 50% and 150%, the antibody was considered a binder (1))
- Antibody binding to TF construct [14]: 0 (less than 50%, the antibody was considered a non-binder (0))
